The target in assay [1] is T1, B′γ1 regulatory subunit (UniProt Q13362-2 1-449). Description: BLI. Background: Biolayer interferometry detects binding as a change in optical thickness at a sensor tip.
In assay [2] the target is PP2A-B′γ1 holoenzyme (UniProt P30153 1-589; P67775 1-309; Q13362-2 1-449). The experiment in a line: BLI.
For assay [3], the target named is B′α regulatory subunit (UniProt Q15172 1-486). Description: BLI.
The target of assay [4] is T1, B′γ1 regulatory subunit. The experiment in a line: ITC.

Where no end group is shown, it is not given here.

Sequence of B′α regulatory subunit (Q15172 whole entry): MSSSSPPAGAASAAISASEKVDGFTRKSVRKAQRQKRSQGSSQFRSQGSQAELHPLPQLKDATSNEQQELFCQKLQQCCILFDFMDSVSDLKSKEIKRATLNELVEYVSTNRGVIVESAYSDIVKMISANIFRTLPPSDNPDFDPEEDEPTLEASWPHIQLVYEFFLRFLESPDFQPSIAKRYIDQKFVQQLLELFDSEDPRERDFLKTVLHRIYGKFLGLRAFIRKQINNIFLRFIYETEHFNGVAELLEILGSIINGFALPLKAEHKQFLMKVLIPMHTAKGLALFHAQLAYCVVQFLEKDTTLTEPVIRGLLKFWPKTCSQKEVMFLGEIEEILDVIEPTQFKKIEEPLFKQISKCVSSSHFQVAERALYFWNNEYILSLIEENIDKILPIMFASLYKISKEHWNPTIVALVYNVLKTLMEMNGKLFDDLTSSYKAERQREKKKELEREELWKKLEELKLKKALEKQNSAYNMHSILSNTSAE
Sequence of PP2A-B′γ1 holoenzyme (P30153 whole entry, chain 1 of 3, other chains not shown): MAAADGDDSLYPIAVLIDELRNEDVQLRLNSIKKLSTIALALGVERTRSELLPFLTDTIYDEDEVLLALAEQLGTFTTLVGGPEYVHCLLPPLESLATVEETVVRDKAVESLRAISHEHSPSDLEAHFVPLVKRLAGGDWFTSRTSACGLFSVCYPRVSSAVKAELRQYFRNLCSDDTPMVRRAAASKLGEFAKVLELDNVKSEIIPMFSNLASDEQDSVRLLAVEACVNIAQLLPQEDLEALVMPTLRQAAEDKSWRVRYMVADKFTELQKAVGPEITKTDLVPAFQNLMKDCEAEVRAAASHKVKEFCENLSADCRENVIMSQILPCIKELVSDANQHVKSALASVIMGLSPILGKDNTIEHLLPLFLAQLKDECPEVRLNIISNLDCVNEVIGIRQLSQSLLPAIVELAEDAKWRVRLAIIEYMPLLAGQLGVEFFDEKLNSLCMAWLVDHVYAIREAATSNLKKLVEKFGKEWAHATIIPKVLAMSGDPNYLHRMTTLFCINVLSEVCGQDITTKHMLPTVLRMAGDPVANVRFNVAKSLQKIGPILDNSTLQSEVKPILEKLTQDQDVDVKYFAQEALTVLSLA
Sequence of PP2A-B′γ1 holoenzyme (P67775 whole entry, chain 2 of 3, other chains not shown): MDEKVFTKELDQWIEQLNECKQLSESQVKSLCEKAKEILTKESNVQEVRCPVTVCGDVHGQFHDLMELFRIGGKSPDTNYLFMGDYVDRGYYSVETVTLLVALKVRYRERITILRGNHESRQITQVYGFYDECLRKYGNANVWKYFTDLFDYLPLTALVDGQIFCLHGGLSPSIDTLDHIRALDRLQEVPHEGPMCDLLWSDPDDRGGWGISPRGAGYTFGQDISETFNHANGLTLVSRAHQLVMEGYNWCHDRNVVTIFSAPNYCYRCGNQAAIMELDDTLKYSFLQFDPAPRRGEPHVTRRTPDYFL

The term Kd denotes a measure of binding affinity in units of concentration. LSSIPEASEYDWRNYQ [GST-tagged C3orf67 peptide (B′-binding motif)]: the Kd in assay [1] stood at 62 nM; in assay [2] it was 43 nM; in assay [3] it was 450 nM.
Regarding QNQFSEHDKTLYRIPE [GST-tagged TJP1 peptide (B′-binding motif)], the results for the Kd in assay [1] and in assay [3] were 161 nM and 490 nM, respectively.
For LETIPESEPSGMNRIL [GST-tagged DENND2C peptide (B′-binding motif)], the Kd stood at 530 nM in assay [1] and 221 nM in assay [2].
Consider LSTIDEEGE [Cyk4 S149E/S151E peptide (synthetic, phosphomimetic)], for which binding in assay [4] was characterised by a dissociation constant (Kd) of 1300 nM.
As to NKRLSTIDEEGS [Cyk4 peptide S149E], the Kd in assay [4] is 1590 nM.
As to YQPLECIVEETEGKLN (not fully specified) [GST-tagged ANKHD1 peptide (B′-binding motif)], the values for the Kd in assay [1], in assay [2] and in assay [3] were 2100 nM, 320 nM and 1090 nM, respectively.
Taken in the same sequence, the figures for IKKLSPIIEDSREATH [GST-tagged BUB1B peptide (B′-binding motif)] were 43 nM, 34 nM and 226 nM.

B1: native Cyk4 peptide (synthetic) (peptide)
chain: LSTIDESGS
modifications: synthetic peptide; exact ends and termini not given, the printed motif 143-LSTIDESGS-151 is used as the core
In assay [4], B1 displayed a Kd of 22700 nM.
For HVLYPIPESSSDSPLA [GST-tagged STON1 peptide (B′-binding motif)], the Kd in assay [1] was found to be 3000 nM; in assay [3], 11800 nM.
For the molecule KLPHVLSSIAEEEHHL [GST-tagged SYT16 peptide (B′-binding motif)], the Kd in assay [1] worked out at 340 nM; in assay [2] it was 121 nM; in assay [3], 197 nM.
For FQHNRKLESVAEEHEI [GST-tagged KIAA1524 (CIP2A) peptide (B′-binding motif)], the Kd in assay [1] was determined as 121 nM; in assay [2], 310 nM; in assay [3], 330 nM.

For the origin of these results see PMC5586252 (2017).
